Where two headings read alike, the source gives them in different places.
Assays:
[1] = target: T1, T4 DNA ligase (Enterobacteria phage T4?) (UniProt P00970)
T1 sequence: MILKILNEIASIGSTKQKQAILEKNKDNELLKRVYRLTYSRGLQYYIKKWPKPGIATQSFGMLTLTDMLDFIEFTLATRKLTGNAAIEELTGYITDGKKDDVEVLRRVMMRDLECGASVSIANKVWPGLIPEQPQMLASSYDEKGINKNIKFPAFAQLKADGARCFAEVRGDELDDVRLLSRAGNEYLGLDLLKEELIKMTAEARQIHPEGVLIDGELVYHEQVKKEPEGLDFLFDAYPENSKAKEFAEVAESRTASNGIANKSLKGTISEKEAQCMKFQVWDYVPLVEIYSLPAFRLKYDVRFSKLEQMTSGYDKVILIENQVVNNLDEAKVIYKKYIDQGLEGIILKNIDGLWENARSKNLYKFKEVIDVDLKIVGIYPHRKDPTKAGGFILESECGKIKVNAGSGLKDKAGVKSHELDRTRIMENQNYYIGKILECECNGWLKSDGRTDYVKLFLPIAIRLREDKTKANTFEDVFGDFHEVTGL

[2] = target: T2, T3 DNA ligase (Enterobacteria phage T3?) (UniProt P07717); conditions: T4 ligase buffer, 25 C 1 h
T2 sequence: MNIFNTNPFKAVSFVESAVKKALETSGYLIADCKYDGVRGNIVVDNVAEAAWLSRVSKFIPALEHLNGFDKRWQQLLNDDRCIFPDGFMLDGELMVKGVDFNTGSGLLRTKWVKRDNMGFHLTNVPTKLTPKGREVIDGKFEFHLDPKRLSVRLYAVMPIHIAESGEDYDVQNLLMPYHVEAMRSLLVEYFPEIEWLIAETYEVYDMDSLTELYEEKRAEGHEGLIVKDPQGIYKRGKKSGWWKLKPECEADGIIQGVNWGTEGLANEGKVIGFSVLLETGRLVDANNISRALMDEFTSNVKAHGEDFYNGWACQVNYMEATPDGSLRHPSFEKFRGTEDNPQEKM

[3] = test system: T3, Human DNA ligase 3 (hLig3 beta) (Homo sapiens), P49916-4
T3 sequence: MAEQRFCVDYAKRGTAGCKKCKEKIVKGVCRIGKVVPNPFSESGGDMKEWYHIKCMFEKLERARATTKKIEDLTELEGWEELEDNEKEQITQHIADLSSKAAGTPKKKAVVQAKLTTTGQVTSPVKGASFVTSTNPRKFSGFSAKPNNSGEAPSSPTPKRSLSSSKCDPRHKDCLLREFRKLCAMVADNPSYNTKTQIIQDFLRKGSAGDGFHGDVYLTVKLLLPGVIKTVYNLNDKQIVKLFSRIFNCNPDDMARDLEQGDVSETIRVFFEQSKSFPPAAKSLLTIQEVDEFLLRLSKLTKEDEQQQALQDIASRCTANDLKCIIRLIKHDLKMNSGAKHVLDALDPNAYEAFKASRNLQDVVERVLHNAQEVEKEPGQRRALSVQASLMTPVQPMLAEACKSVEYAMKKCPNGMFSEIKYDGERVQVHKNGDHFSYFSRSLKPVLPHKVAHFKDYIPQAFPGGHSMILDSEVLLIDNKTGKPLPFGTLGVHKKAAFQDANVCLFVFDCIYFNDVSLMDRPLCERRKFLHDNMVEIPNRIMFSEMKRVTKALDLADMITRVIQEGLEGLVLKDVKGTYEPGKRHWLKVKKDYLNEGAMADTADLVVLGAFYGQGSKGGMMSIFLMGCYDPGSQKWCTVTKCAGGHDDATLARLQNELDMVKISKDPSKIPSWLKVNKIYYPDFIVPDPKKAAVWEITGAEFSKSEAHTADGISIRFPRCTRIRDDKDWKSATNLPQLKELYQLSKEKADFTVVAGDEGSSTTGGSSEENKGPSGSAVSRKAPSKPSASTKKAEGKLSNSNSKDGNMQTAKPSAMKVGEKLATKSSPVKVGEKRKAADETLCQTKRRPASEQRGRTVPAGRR

[4] = target: T4, PBCV-1 DNA ligase (Paramecium bursaria Chlorella virus 1?) (UniProt O41026); conditions: T4 ligase buffer, 25 C 1 h; library yield 50%
T4 sequence: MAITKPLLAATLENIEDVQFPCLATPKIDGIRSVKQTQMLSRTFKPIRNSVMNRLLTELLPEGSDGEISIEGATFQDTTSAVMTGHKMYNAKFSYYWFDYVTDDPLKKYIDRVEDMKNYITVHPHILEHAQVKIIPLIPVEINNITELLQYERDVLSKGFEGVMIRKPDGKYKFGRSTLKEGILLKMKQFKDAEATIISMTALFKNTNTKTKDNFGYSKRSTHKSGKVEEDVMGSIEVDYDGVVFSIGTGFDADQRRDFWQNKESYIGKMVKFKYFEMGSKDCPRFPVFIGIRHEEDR

[5] = target: T5, T7 DNA ligase (Enterobacteria phage T7?) (UniProt P00969)
T5 sequence: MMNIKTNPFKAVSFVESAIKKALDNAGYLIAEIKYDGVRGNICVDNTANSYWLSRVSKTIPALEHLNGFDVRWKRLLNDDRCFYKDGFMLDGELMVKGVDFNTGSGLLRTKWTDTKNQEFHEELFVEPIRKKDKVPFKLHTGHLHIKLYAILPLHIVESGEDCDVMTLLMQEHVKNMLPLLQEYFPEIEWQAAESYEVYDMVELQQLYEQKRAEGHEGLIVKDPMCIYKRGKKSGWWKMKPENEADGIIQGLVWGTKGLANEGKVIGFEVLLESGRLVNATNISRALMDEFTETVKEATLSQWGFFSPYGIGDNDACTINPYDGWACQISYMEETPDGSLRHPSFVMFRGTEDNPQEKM

Question: For “NNNN [randomized four-base 5' overhang hairpin library]”, which activity (% ligation fidelity) ([1]; SMRT sequencing, T4 ligase buffer, 10 mM MgCl2, 1 mM ATP, 25 C 1 h) is on record?
Answer: The activity (% ligation fidelity) was 72.4.

Question: What about the activity (% ligation fidelity) ([1]; with 6% PEG 6000) of the same substance?
Answer: Its activity (% ligation fidelity) is 66.9.

Question: What about the activity (% ligation fidelity) [2] of the same substance?
Answer: The activity (% ligation fidelity) was 59.2.

Question: What about the activity (% ligation fidelity) ([3]; T4 ligase buffer, 25 C 1 h, text p210 prints 56%) of the same substance?
Answer: Its activity (% ligation fidelity) is 44.

Question: What about the activity (% ligation fidelity) ([3]; with 6% PEG 6000) of the same substance?
Answer: The activity (% ligation fidelity) was 49.7.

Question: And the activity (% ligation fidelity) [4]?
Answer: Its activity (% ligation fidelity) is 77.2.

Question: What about the activity (% ligation fidelity) ([5]; T4 ligase buffer, 25 C 1 h, library yield 20%) of the same substance?
Answer: The activity (% ligation fidelity) was 88.8.

Question: And the activity (% ligation fidelity) ([5]; with 6% PEG 6000)?
Answer: Its activity (% ligation fidelity) is 77.9.

From US20220177875
